{
  "source": "paper PMC10767040",
  "about": "“Helical reconstruction of VP39 reveals principles for baculovirus nucleocapsid assembly” (Nature Communications, 2024)",
  "proteins": {"B1": {"name": "Autographa californica multiple nucleopolyhedrovirus (AcMNPV) major capsid protein VP39 (natural protein)", "chain": "MALVPVGMAPRQMRVNRCIFASIVSFDACITYKSPCSPDAYHDDGWFICNNHLIKRFKMSKMVLPIFDEDDNQFKMTIARHLVGNKERGIKRILIPSATNYQDVFNLNSMMQAEQLIFHLIYNNENAVNTICDNLKYTEGFTSNTQRVIHSVYATTKSILDTTNPNTFCSRVSRDELRFFDVTNARALRGGAGDQLFNNYSGFLQNLIRRAVAPEYLQIDTEELRFRNCATCIIDETGLVASVPDGPELYNPIRSSDIMRSQPNRLQIRNVLKFEGDTRELDRTLSGYEEYPTYVPLFLGYQIINSENNFLRNDFIPRANPNATLGGGAVAGPAPGVAGEAGGGIAV", "notes": "VP39, the 39 kDa major capsid protein of Autographa californica multiple nucleopolyhedrovirus, as assembled in the nucleocapsid; the first 11 residues of the N terminus and the last 27 residues of the C terminus are unresolved in the model; The virus's own VP39 from the bacmid backbone; the decahistidine or FLAG tags were on unrelated human constructs, not on VP39; In the sample VP39 stood as …"}},
  "molecular_target": "the molecule itself",
  "assay": "cryo-EM structure; helical reconstruction (D14, rise 43.86 Å, twist -7.16°) of AcMNPV nucleocapsids purified from Sf9 cells, on graphene-coated grids; local reconstruction of four adjacent VP39 dimers",
  "data": [
    {"protein": "B1", "values": [
      {"measurement": "stoichiometry N", "value": 2}
    ]}
  ]
}
